# Test results taken from article PMC10786891, “Massively parallel profiling of RNA-targeting CRISPR-Cas13d”.
# Substitutions are numbered along the chain they refer to. Names may count otherwise.
# B1: target 2 MT 5'PFS ACU 3'PFS UCG (mixed)
# RNA 1: CACCCGUGCAAAAUUGCAGGGGUCUAAAACCUUCUCCAAAUUGUUUCAUCCU
# RNA 2: GGGAAUGGAUCCACAUCUACGAAUUCACUAGGAUGAAACAAUUUGGAGAAGUCGAGAUCGGAAGAGCACACGU
# B2: target 2 MT 5'PFS CUU 3'PFS AUC (mixed)
# RNA 1: B1 RNA 1
# RNA 2: B1 RNA 2 with A27C, C28U, U52A, C53U, G54C
# B3: target 2 MT 5'PFS CAA 3'PFS AGC (mixed)
# RNA 1: B1 RNA 1
# RNA 2: B1 RNA 2 with A27C, C28A, U29A, U52A, C53G, G54C
# B4: target 2 MT 5'PFS GUA 3'PFS UAU (mixed)
# RNA 1: B1 RNA 1
# RNA 2: B1 RNA 2 with A27G, C28U, U29A, C53A, G54U
# B5: target 2 MT 5'PFS ACU 3'PFS UCU (mixed)
# RNA 1: B1 RNA 1
# RNA 2: B1 RNA 2 with G54U
# B6: target 2 MT 5'PFS ACG 3'PFS ACA (mixed)
# RNA 1: B1 RNA 1
# RNA 2: B1 RNA 2 with U29G, U52A, G54A
# B7: target 2 MT 5'PFS ACG 3'PFS ACC (mixed)
# RNA 1: B1 RNA 1
# RNA 2: B1 RNA 2 with U29G, U52A, G54C
# B8: target 2 MT 5'PFS AUU 3'PFS UGC (mixed)
# RNA 1: B1 RNA 1
# RNA 2: B1 RNA 2 with C28U, C53G, G54C
# B9: target 1 A16U,G17U (mixed)
# RNA 1: CACCCGUGCAAAAAUGCAGGGGUCUAAAACUGAGCGGAUAACCUCUCUAUGG
# RNA 2: GGGAAUGGAUCCACAUCUACGAAUUCGUACCAUAUUGAGGUUAUCCGCUCACCGAGAUCGGAAGAGCACACGU
# B10: target 2 MT 5'PFS ACG 3'PFS ACG (mixed)
# RNA 1: B1 RNA 1
# RNA 2: B1 RNA 2 with U29G, U52A
# B11: target 2 MT 5'PFS UUU 3'PFS ACU (mixed)
# RNA 1: B1 RNA 1
# RNA 2: B1 RNA 2 with A27U, C28U, U52A, G54U
# B12: target 2 MT 5'PFS UCG 3'PFS CUC (mixed)
# RNA 1: B1 RNA 1
# RNA 2: B1 RNA 2 with A27U, U29G, U52C, C53U, G54C
# B13: target 2 MT 5'PFS CUU 3'PFS AUG (mixed)
# RNA 1: B1 RNA 1
# RNA 2: B1 RNA 2 with A27C, C28U, U52A, C53U
# B14: target 2 MT 5'PFS UCG 3'PFS CUG (mixed)
# RNA 1: B1 RNA 1
# RNA 2: B1 RNA 2 with A27U, U29G, U52C, C53U
# B15: target 2 MT 5'PFS ACG 3'PFS ACU (mixed)
# RNA 1: B1 RNA 1
# RNA 2: B1 RNA 2 with U29G, U52A, G54U
# B16: target 2 MT 5'PFS AAU 3'PFS ACC (mixed)
# RNA 1: B1 RNA 1
# RNA 2: B1 RNA 2 with C28A, U52A, G54C
# B17: target 2 MT 5'PFS UUU 3'PFS ACG (mixed)
# RNA 1: B1 RNA 1
# RNA 2: B1 RNA 2 with A27U, C28U, U52A
# B18: target 2 MT 5'PFS UUU 3'PFS ACA (mixed)
# RNA 1: B1 RNA 1
# RNA 2: B1 RNA 2 with A27U, C28U, U52A, G54A
# B19: target 2 MT 5'PFS UUU 3'PFS ACC (mixed)
# RNA 1: B1 RNA 1
# RNA 2: B1 RNA 2 with A27U, C28U, U52A, G54C
# B20: target 1 insG 3' of 20,insU 3' of 12 (mixed)
# RNA 1: B9 RNA 1
# RNA 2: GGGAAUGGAUCCACAUCUACGAAUUCGUACCAGUAGAGAGGUUUAUCCGCUCACCGAGAUCGGAAGAGCACACGU
# B21: target 2 MT 5'PFS UCU 3'PFS UUU (mixed)
# RNA 1: B1 RNA 1
# RNA 2: B1 RNA 2 with A27U, C53U, G54U
# B22: target 2 MT 5'PFS CAU 3'PFS CAA (mixed)
# RNA 1: B1 RNA 1
# RNA 2: B1 RNA 2 with A27C, C28A, U52C, C53A, G54A
# B23: target 2 MT 5'PFS CAU 3'PFS CAC (mixed)
# RNA 1: B1 RNA 1
# RNA 2: B1 RNA 2 with A27C, C28A, U52C, C53A, G54C
# B24: target 2 MT 5'PFS GGC 3'PFS CGG (mixed)
# RNA 1: B1 RNA 1
# RNA 2: B1 RNA 2 with A27G, C28G, U29C, U52C, C53G
# B25: target 2 MT 5'PFS GGC 3'PFS CGA (mixed)
# RNA 1: B1 RNA 1
# RNA 2: B1 RNA 2 with A27G, C28G, U29C, U52C, C53G, G54A
# B26: target 2 MT 5'PFS GGC 3'PFS CGC (mixed)
# RNA 1: B1 RNA 1
# RNA 2: B1 RNA 2 with A27G, C28G, U29C, U52C, C53G, G54C
# B27: target 2 MT 5'PFS AAU 3'PFS ACG (mixed)
# RNA 1: B1 RNA 1
# RNA 2: B1 RNA 2 with C28A, U52A
# B28: target 2 MT 5'PFS AGG 3'PFS AGA (mixed)
# RNA 1: B1 RNA 1
# RNA 2: B1 RNA 2 with C28G, U29G, U52A, C53G, G54A
# B29: target 2 MT 5'PFS AGG 3'PFS AGC (mixed)
# RNA 1: B1 RNA 1
# RNA 2: B1 RNA 2 with C28G, U29G, U52A, C53G, G54C
# B30: target 2 MT 5'PFS UCU 3'PFS UUC (mixed)
# RNA 1: B1 RNA 1
# RNA 2: B1 RNA 2 with A27U, C53U, G54C
# B31: target 1 insC 3' of 15,insA 3' of 15 (mixed)
# RNA 1: B9 RNA 1
# RNA 2: B20 RNA 2 with G33U, U34A, A35G, G36A, A37G, G38C, G40A, U42G
# B32: target 1 insG 3' of 7,insA 3' of 3 (mixed)
# RNA 1: B9 RNA 1
# RNA 2: GGGAAUGGAUCCACAUCUACGAAUUCGUACCAUAGAGAGGUUAUCGCGCUACACCGAGAUCGGAAGAGCACACGU
# Target: T1, EsCas13d, nuclease-dead (Eubacterium siraeum, UniProt B0MS50, R295A;H300A;R849A;H854A)
# T1 sequence: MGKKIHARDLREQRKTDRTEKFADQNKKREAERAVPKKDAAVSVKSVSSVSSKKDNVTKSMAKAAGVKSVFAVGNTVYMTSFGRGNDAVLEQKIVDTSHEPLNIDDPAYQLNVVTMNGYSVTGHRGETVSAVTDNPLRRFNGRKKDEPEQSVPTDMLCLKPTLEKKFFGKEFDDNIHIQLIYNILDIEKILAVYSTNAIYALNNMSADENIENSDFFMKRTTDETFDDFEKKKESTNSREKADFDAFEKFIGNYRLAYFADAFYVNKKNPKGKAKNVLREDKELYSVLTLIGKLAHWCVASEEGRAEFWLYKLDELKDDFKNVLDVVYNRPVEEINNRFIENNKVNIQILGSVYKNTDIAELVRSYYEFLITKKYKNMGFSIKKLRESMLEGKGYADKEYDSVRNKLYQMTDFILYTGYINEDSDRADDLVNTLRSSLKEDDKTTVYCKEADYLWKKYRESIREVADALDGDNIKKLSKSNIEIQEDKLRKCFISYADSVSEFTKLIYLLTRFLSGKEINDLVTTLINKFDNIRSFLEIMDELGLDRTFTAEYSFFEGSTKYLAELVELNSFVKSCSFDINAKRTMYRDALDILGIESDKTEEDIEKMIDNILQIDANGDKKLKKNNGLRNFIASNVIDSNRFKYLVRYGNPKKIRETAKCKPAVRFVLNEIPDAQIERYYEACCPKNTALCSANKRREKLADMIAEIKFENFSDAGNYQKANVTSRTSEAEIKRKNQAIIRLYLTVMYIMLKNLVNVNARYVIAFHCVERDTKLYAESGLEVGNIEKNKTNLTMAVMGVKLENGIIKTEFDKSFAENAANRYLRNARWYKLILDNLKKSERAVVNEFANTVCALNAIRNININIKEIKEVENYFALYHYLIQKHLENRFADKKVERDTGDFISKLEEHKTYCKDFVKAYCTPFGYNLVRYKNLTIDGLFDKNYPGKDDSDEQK
# Experiment: crRNA (strand 1, pre-loaded); Mg2+; 40 mM Tris-HCl pH 7.5, 150 mM NaCl, 6 mM MgCl2, 1 mM DTT, 0.1% Tween-20, 0.2 mg/ml BSA; 25 C; 10 min per concentration, then washed
# Conditions: tags: His6-TwinStrep-SUMO cleaved; N-terminal SNAP kept (SNAP-Surface 488); label: 3' end held by stalled T7 RNA polymerase
row,Binder,Kd [nM]
1,B1,6.7 ± 1
2,B2,5.1 ± 0.9
3,B3,7.6 ± 2.2
4,B4,7.8 ± 0.7
5,B5,8.4 ± 0.9
6,B6,9.7 ± 2.4
7,B7,~20
8,B8,9.7 ± 1.4
9,B9,22 ± 2.1
10,B10,15 ± 4
11,B11,9.1 ± 0.8
12,B12,23 ± 6
13,B13,4.1 ± 0.4
14,B14,40 ± 9
15,B15,17 ± 5
16,B16,10.5 ± 1.6

row,Binder,Kd [nM]
1,B17,10.6 ± 2
2,B18,6.1 ± 0.7
3,B19,14.1 ± 3.4
4,B20,25 ± 4
5,B21,10.3 ± 1
6,B22,5.2 ± 0.9
7,B23,4.6 ± 0.8
8,B24,14.1 ± 1.7
9,B25,11.4 ± 1.2
10,B26,12.5 ± 1.1
11,B27,5.5 ± 0.6
12,B28,3.4 ± 0.4
13,B29,4.8 ± 0.5
14,B30,18 ± 4
15,B31,8.8 ± 0.6
16,B32,5.85 ± 0.29
